According to PMC10206803, “Structural insights into DNA recognition by the BEN domain of the transcription factor BANP”:

T1: BANP BEN domain (human, UniProt Q8N9N5 208-347)
T1 sequence: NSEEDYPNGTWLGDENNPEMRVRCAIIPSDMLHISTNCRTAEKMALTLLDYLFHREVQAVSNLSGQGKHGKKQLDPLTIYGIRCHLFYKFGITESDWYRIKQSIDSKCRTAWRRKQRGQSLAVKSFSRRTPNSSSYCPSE

T2: BEND6 BEN domain (human, UniProt Q5SZJ8 170-271)
T2 sequence: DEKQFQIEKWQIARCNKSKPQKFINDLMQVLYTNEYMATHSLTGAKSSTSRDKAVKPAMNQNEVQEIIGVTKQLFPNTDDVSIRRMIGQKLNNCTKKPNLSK

B1: PBM motif DNA AAATCTCG (dsDNA)
DNA 1: GCAAATCTCGTA
DNA 2: TACGAGATTTGC
B2: CTCacgcgAGAG (dsDNA)
DNA 1: CTCACGCGAGAG
DNA 2: CTCTCGCGTGAG
B3: AAA to cag (dsDNA)
DNA 1: GCCAGTCTCGTA
DNA 2: TACGAGACTGGC
B4: CTCgagcgAGAG (dsDNA)
DNA 1: CTCGAGCGAGAG
DNA 2: CTCTCGCTCGAG
B5: AAA and TCTCG both mutated (dsDNA)
DNA 1: GCCAGCAACATA
DNA 2: TATGTTGCTGGC
B6: TCTCG to TCGCG (dsDNA)
DNA 1: GCAAATCGCGTA
DNA 2: TACGCGATTTGC
B7: TCTCG to caaca (dsDNA)
DNA 1: GCAAACAACATA
DNA 2: TATGTTGTTTGC
B8: CTCtggcgAGAG (dsDNA)
DNA 1: CTCTGGCGAGAG
DNA 2: CTCTCGCCAGAG
B9: AAA to ggg (dsDNA)
DNA 1: GCGGGTCTCGTA
DNA 2: TACGAGACCCGC
B10: CGmCG DNA (dsDNA)
DNA 1: CTCTCGCGAGAG
DNA 2: CTCTCGCGAGAG
modifications: 5-methylcytosine at C7 of both strands
B11: CGCG DNA (dsDNA)
DNA 1: CTCTCGCGAGAG
DNA 2: CTCTCGCGAGAG
B12: FAM methylated CGCG DNA (dsDNA)
DNA 1: CTCTCGCGAGAG
DNA 2: CTCTCGCGAGAG
modifications: 5-methylcytosine, position not given
B13: FAM-CGCG DNA (dsDNA)
DNA 1: CTCTCGCGAGAG
DNA 2: CTCTCGCGAGAG

What follows are binders tested against T1, BANP BEN domain (assay: ITC; ITC: 150 mM NaCl, 20 mM Tris-HCl pH 7.5, with or without DTT, 25 C, 50-90 uM protein in cell, 1 mM DNA in syringe; FP: 20 mM Tris-HCl pH 7.5, 150 mM NaCl, 1 mM). Conditions: protein: recombinant; tags: His6-SUMO removed by TEV; blunt.

**Q.** For B1, which Kd is on record?
**A.** Its Kd is 1 ± 0.1 µM.

**Q.** B2 was tested. Which Kd did it give?
**A.** Its Kd is 14.3 ± 2.6 µM.

**Q.** For B3, which Kd is on record?
**A.** Its Kd is 2.9 ± 0.3 µM.

**Q.** For B4, which Kd is on record?
**A.** Its Kd is 14.1 ± 3 µM.

**Q.** With B5 as the binder, how does the Kd read?
**A.** The Kd was 15.1 ± 1.9 µM.

**Q.** B6 was tested. Which Kd did it give?
**A.** Its Kd is 1.5 ± 0.2 µM.

**Q.** Which Kd does the source give for B7 here?
**A.** Its Kd is 5.4 ± 0.4 µM.

**Q.** B8 was tested. Which Kd did it give?
**A.** The Kd was 14.8 ± 2.3 µM.

**Q.** B9 was tested. Which Kd did it give?
**A.** The Kd was 4.3 ± 0.3 µM.

Same assay, conditions: protein: recombinant; tags: His6-SUMO removed by TEV; blunt, self-complementary

**Q.** B10 was tested. Which Kd did it give?
**A.** The Kd was 7.6 ± 0.3 µM.

**Q.** How did the Kd turn out when B11 was run?
**A.** The Kd was 8.4 ± 0.7 µM.

What follows are binders tested against T2, BEND6 BEN domain (assay: fluorescence polarization; ITC: 150 mM NaCl, 20 mM Tris-HCl pH 7.5, with or without DTT, 25 C, 50-90 uM protein in cell, 1 mM DNA in syringe; FP: 20 mM Tris-HCl pH 7.5, 150 mM NaCl, 1 mM). Conditions: protein: recombinant; tags: His6 (pET28-MHL) removed by TEV; label: 5' FAM.

**Q.** How did the Kd turn out when B12 was run?
**A.** Its Kd is roughly 39 µM.

Same assay, conditions: protein: recombinant; tags: His6 (pET28-MHL) removed by TEV; label: 5' FAM; blunt, self-complementary

**Q.** Which Kd does the source give for B13 here?
**A.** Its Kd is roughly 33 µM.
